Test results: patent US20250276077A1, “EPHA2 ANTIBODIES” (Immunome, Inc., priority 2022, published 2025)

Assays:
[1] = molecular target: Human EphA2 (ephrin receptor A2), native, in human tumor tissue (human) (UniProt P29317); assay: IF tumor tissue ESO, 10 ug/ml
[2] = molecular target: Human EphA2 (ephrin receptor A2), native, in human tumor tissue (human) (UniProt P29317); assay: IF tumor tissue ESO, 30 ug/ml
[3] = molecular target: Human EphA2 (ephrin receptor A2), native, in human tumor tissue (human) (UniProt P29317); assay: IF tumor tissue MELA, 3 ug/ml
[4] = molecular target: Human EphA2 (ephrin receptor A2), native, in human tumor tissue (human) (UniProt P29317); assay: IF tumor tissue URO, 30 ug/ml
[5] = molecular target: Human EphA2 (ephrin receptor A2), native, in human tumor tissue (human) (UniProt P29317); assay: IF tumor tissue ESO, 0.1 ug/ml
[6] = molecular target: Human EphA2 (ephrin receptor A2), native, in human tumor tissue (human) (UniProt P29317); assay: IF tumor tissue ESO, 0.3 ug/ml
[7] = molecular target: Human EphA2 (ephrin receptor A2), native, in human tumor tissue (human) (UniProt P29317); assay: IF tumor tissue PANC, 30 ug/ml
[8] = molecular target: Human EphA2 (ephrin receptor A2), native, in human tumor tissue (human) (UniProt P29317); assay: IF tumor tissue STS, 0.1 ug/ml
[9] = molecular target: Human EphA2 (ephrin receptor A2), native, in human tumor tissue (human) (UniProt P29317); assay: IF tumor tissue STS, 0.3 ug/ml
[10] = molecular target: Human EphA2 (ephrin receptor A2), native, in human tumor tissue (human) (UniProt P29317); assay: IF tumor tissue URO, 0.3 ug/ml
[11] = molecular target: Human EphA2 (ephrin receptor A2), native, in human tumor tissue (human) (UniProt P29317); assay: IF tumor tissue MELA, 0.1 ug/ml
[12] = molecular target: Human EphA2 (ephrin receptor A2), native, in human tumor tissue (human) (UniProt P29317); assay: IF tumor tissue PANC, 0.3 ug/ml
[13] = molecular target: Human EphA2 (ephrin receptor A2), native, in human tumor tissue (human) (UniProt P29317); assay: IF tumor tissue NSCLC-SQ, 3 ug/ml
[14] = molecular target: Human EphA2 (ephrin receptor A2), native, in human tumor tissue (human) (UniProt P29317); assay: IF tumor tissue NSCLC-SQ, 10 ug/ml
[15] = molecular target: Human EphA2 (ephrin receptor A2), native, in human tumor tissue (human) (UniProt P29317); assay: IF tumor tissue Uterine, 0.3 ug/ml
[16] = molecular target: Human EphA2 (ephrin receptor A2), native, in human tumor tissue (human) (UniProt P29317); assay: IF tumor tissue NSCLC-SQ, 0.3 ug/ml
[17] = molecular target: Human EphA2 (ephrin receptor A2), native, in human tumor tissue (human) (UniProt P29317); assay: IF tumor tissue NSCLC-Adeno, 1 ug/ml
[18] = molecular target: Human EphA2 (ephrin receptor A2), native, in human tumor tissue (human) (UniProt P29317); assay: IF tumor tissue NSCLC-Adeno, 3 ug/ml
[19] = molecular target: Human EphA2 (ephrin receptor A2), native, in human tumor tissue (human) (UniProt P29317); assay: IF tumor tissue NSCLC-Adeno, 30 ug/ml
[20] = molecular target: Human EphA2 (ephrin receptor A2), native, in human tumor tissue (human) (UniProt P29317); assay: IF tumor tissue NSCLC-Adeno, 0.1 ug/ml
[21] = molecular target: Human EphA2 (ephrin receptor A2), native, in human tumor tissue (human) (UniProt P29317); assay: IF tumor tissue RCC-papillary, 10 ug/ml
[22] = molecular target: Human EphA2 (ephrin receptor A2), native, in human tumor tissue (human) (UniProt P29317); assay: tissue staining of human cancer samples, 10 ug/ml
[23] = molecular target: C-terminally His-tagged hEphA2-FN2 (Thr437-Asn534+His tag) (human) (UniProt P29317); assay: SPR Biacore T200, 25 C; mIgG2a as immobilized ligand, hEphA2-FN2-His analyte
Chain of C-terminally His-tagged hEphA2-FN2 (Thr437-Asn534+His tag) (human) (P29317 437-534 limits assumed): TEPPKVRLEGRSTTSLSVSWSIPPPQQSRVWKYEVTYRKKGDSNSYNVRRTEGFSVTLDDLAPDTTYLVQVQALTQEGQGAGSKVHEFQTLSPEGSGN

Chain of Human EphA2 (ephrin receptor A2), native, in human tumor tissue (human) (P29317 25-976): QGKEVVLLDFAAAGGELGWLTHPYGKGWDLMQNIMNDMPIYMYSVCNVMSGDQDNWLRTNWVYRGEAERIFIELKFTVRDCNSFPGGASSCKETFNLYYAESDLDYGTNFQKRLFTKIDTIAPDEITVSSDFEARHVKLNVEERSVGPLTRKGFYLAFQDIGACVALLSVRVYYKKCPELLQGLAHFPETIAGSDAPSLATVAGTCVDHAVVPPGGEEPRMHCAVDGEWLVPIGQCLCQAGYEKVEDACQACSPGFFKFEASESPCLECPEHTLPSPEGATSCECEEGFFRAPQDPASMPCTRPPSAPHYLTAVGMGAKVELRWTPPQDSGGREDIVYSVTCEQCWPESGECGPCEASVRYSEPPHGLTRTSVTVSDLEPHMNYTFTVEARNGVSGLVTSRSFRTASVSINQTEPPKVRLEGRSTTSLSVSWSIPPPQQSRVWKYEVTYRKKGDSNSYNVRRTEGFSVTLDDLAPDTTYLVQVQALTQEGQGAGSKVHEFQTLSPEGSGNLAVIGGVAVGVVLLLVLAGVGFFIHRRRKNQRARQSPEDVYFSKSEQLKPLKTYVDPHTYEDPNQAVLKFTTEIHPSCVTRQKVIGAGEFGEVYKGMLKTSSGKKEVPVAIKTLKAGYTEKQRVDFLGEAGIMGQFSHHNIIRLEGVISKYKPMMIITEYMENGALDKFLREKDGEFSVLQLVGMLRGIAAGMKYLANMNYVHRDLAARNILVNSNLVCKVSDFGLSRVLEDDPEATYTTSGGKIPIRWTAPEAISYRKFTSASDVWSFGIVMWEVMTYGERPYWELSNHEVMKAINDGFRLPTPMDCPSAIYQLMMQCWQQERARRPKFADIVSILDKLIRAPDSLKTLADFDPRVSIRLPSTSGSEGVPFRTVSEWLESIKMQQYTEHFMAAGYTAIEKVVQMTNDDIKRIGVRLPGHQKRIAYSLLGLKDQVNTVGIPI

AB-010018 (mouse monoclonal antibody precursor of DS-8895a; mouse IgG2a format)
tissue reactivity score [1]: 1 | tissue reactivity score [2]: 2 | tissue reactivity score [3]: 2 | tissue reactivity score [4]: 2 | tissue reactivity score [5]: 1 | tissue reactivity score [6]: 1 | tissue reactivity score [7]: 2 | tissue reactivity score [8]: 1 | tissue reactivity score [9]: 1 | tissue reactivity score [10]: 2 | tissue reactivity score [11]: 1 | tissue reactivity score [12]: 2 | tissue reactivity score [13]: 1 | tissue reactivity score [14]: 1 | tissue reactivity score [15]: 2 | tissue reactivity score [16]: 1 | tissue reactivity score [17]: 1 | tissue reactivity score [18]: 1 | tissue reactivity score [19]: 1 | tissue reactivity score [20]: 1 | tissue reactivity score [21]: 2 | Reactive (% of samples), Bladder Cancer (Urothelial) [22]: 86% | Reactive (% of samples), Breast Cancer [22]: 79% | Reactive (% of samples), Cervical Cancer (Squamous) [22]: 100% | Reactive (% of samples), Esophageal Cancer (Squamous) [22]: 33% | Reactive (% of samples), Head & Neck Cancer (Squamous) [22]: 87% | Reactive (% of samples), Liver Cancer (HCC) [22]: 82% | Reactive (% of samples), Non-Small Cell Lung Cancer [22]: 90% | Reactive (% of samples), Ovarian Cancer [22]: 88% | Reactive (% of samples), Renal Cancer [22]: 47% | Reactive (% of samples), Soft Tissue Sarcoma [22]: 20% | Reactive (% of samples), Stomach Cancer (Adenocarcinoma) [22]: 88% | Reactive (% of samples), Testicular Cancer [22]: 56% | Reactive (% of samples), Thyroid Cancer [22]: 31% | Reactive (% of samples), Uterine Cancer [22]: 92% | Kd [23]: 4.3 nM | koff [23]: 0.0021 s⁻¹ | kon [23]: 490000 M⁻¹ s⁻¹
